One series deals with experimental animals. Briefly: Tolerability in experimental animals at therapeutically active doses. Format: in vivo.
Series [1] deals with germs which are pathogenic to man. Briefly: Treatment of experimental infections in laboratory animals. The conditions noted are these: laboratory animals injected with germs pathogenic to man. Format: in vivo.
The nature of series [2]: Storage stability of the liophylized product. Format: physicochemical.
Series [3] has as its system male and female rat (Sprague-Dawley). Briefly: Acute toxicity on single administration, male and female rat (Sprague-Dawley). It counts as in vivo. The note with it: for Mortality after 7 days: 1000 mg/kg single dose, 10 rats per dose; for LD50: single administration, 7 days. On the procedure:
(a) Toxicity on single administration.
The experiment was conducted on rats and mice (male and female) by oral and intraperitoneal administration of conalbumen dissolved in double-distilledsterile water. The animals were kept under control for 7 days following the administration.
Acute toxicity of the product after a single admini-
stration to the male and female rat (Sprague-Dawley).

The subject of series [4] is children affected by acute initial gastroenteropathy. The series can be described thus: Clinical efficacy test in 32 children with acute initial gastroenteropathy vs chemiantibiotic group. It counts as in vivo. The protocol: The tests were conducted on a group of 32 children (14 males, 18 females) of an age group comprised between 2 months and 2 years, affected by acute initial gastroenteropathy.
The test group comprised forms of substantial gravity (15.6% of the total cases), forms of intermediate gravity (43.7%), and finally forms of least gravity (40.6%), determined by known clinical diagnostic methods.
In all cases, in addition to the oral or parental rehydration (in 21.8% of the cases there was actually performed a parental rehydration with glucosaline and polyelectric solutions) and to the usual dietetic treatment, there was performed symptomatic therapy with anticholinergic agents.
The product was administered orally to all the test subjects at a dosage of 300 mg. per day, divided into three equal doses.
The duration of the therapy varied from a minimum of 5 days to a maximum of 10 days.
It was thought opportune, on a clinical plane, to evaluate the test results according to the following parameters:
(1) average time of normalization of the abdomen.
(2) number and percentage of the cases with regularization of the abdomen within the first 48 hours (see Table II and figure 1).
(3) average duration of the time of therapy.
There was further compared the test subjects with a group of subjects of similar age and equally affected by acute initial gastroenteropathy which had received, in addition to the usual symptomatic and dietetic therapy, a chemiantibiotic treatment.
It is important to note that this second group presented a clinical physionomy similar to that of the test group (and therefore with a percentage division equal between forms of different gravity) and further belonging chronologically to the same epidemiological period.

[5] abbreviates: 32 cases per group, product oral 300 mg per day in three doses.
[6] abbreviates: percentage distribution, drawing.
The mark [7] stands for this setting: product vs chemiantibiotics group.

B1: conalbumen: transferrin (ovotransferrin or conalbumen) extracted in a pure state from egg white (protein, UniProt P02789 20-705, looked up)
Ovotransferrin: APPKSVIRWCTISSPEEKKCNNLRDLTQQERISLTCVQKATYLDCIKAIANNEADAISLDGGQAFEAGLAPYKLKPIAAEVYEHTEGSTTSYYAVAVVKKGTEFTVNDLQGKTSCHTGLGRSAGWNIPIGTLLHRGAIEWEGIESGSVEQAVAKFFSASCVPGATIEQKLCRQCKGDPKTKCARNAPYSGYSGAFHCLKDGKGDVAFVKHTTVNENAPDQKDEYELLCLDGSRQPVDNYKTCNWARVAAHAVVARDDNKVEDIWSFLSKAQSDFGVDTKSDFHLFGPPGKKDPVLKDLLFKDSAIMLKRVPSLMDSQLYLGFEYYSAIQSMRKDQLTPSPRENRIQWCAVGKDEKSKCDRWSVVSNGDVECTVVDETKDCIIKIMKGEADAVALDGGLVYTAGVCGLVPVMAERYDDESQCSKTDERPASYFAVAVARKDSNVNWNNLKGKKSCHTAVGRTAGWVIPMGLIHNRTGTCNFDEYFSEGCAPGSPPNSRLCQLCQGSGGIPPEKCVASSHEKYFGYTGALRCLVEKGDVAFIQHSTVEENTGGKNKADWAKNLQMDDFELLCTDGRRANVMDYRECNLAEVPTHAVVVRPEKANKIRDLLERQEKRFGVNGSEKSKFMMFESQNKDLLFKDLTKCLFKVREGTTYKEFLGDKFYTVISSLKTCNPSDILQMCSFLEGK
For the molecule B1, the “Toxic manifestation or significant side effects” value in the series with experimental animals is reported as “does not result in toxic manifestation or in significant side effects”. The “Efficacy in experimental infections” value in series [1] was “surprising efficacy”. Also, in series [2] (liophylized, kept at ambient or lower temperature), the “Maintains its properties unchanged” value was “at least 6 months”. In addition, the “Period for which the product can be kept” value in series [2] (vials containing 100 mg. or more, liophylized form) is given as “indefinite periods”. In series [3] (female 90-105 g, oral), the “Mortality after 7 days” value is reported as 0/10 and the LD50 is more than 1000 mg/kg. In series [3] (female 100-110 g, i.p.), the “Mortality after 7 days” value is listed as 0/10 and the LD50 was more than 1000 mg/kg. In series [3] (male 100-120 g, i.p.), the “Mortality after 7 days” value was 0/10 and the LD50 is listed as more than 1000 mg/kg. In addition, in series [3] (male 100-130 g, oral), the “Mortality after 7 days” value is reported as 0/10 and the LD50 is reported as more than 1000 mg/kg. Also, in series [4] (setting [5]), the “Average time of Therapy” value is listed as 6,1 days and the “Percentage normalization within 48 hours” value is reported as 53,1 Percentage. Also, the “Average time of normalization of the abdomen” value in series [4] (32 cases per group, product oral 300 mg per day in three doses, p <0,40) is given as 2,56. Also, in series [4] (of 32 cases per group, product oral 300 mg per day in three doses), the “No. of cases with normalization within 48 hours” value is given as 17. Besides, the Clinical results in series [4] (overall) is given as “very favorable”. Also, in series [4] (overall comparison), the “Clinical results with respect to the group treated with chemiantibiotics” value is reported as “definitely better”. In series [4] (setting [6]), the “Distribution in the time of normalization of the abdomen, days with most cases” value is “between the second and third day”; the “Peak in the time of normalization of the abdomen” value is on record as “second day”. In series [4] (setting [7]), the “Average time of normalization of the abdomen, comparison with chemiantibiotics” value is “slightly lower”; the “Number of cases and percentage of normalization of the abdomen within the first 48 hours, comparison with chemiantibiotics” value is listed as “higher”.

For the origin of these results see US4029771A, “Composition for the treatment of bacterial-intestinal infections” (priority 1975, dated 1977).
